Assay results as given in patent US20180291096A1 (Janssen / Centocor, published 2018).
Blank lines part the entries; values can stand above or below the binder they belong to.

B4: recombinant human IL-23 (hrIL-23), produced at Centocor (ligand)
chain 1: RAVPGGSSPAWTQCQQLSQKLCTLAWSAHPLVGHMDLREEGDEETTNDVPHIQCGDGCDPQGLRDNSQFCLQRIHQGLIFYEKLLGSDIFTGEPSLLPDSPVAQLHASLLGLSQLLQPEGHHWETQQIPSLSPSQPWQRLLLRFKILRSLQAFVAVAARVFAHGAATLSP
chain 2: IWELKKDVYVVELDWYPDAPGEMVVLTCDTPEEDGITWTLDQSSEVLGSGKTLTIQVKEFGDAGQYTCHKGGEVLSHSLLLLHKKEDGIWSTDILKDQKEPKNKTFLRCEAKNYSGRFTCWWLTTISTDLTFSVKSSRGSSDPQGVTCGAATLSAERVRGDNKEYEYSVECQEDSACPAAEESLPIEVMVDAVHKLKYENYTSSFFIRDIIKPDPPKNLQLKPLKNSRQVEVSWEYPDTWSTPHSYFSLTFCVQVQGKSKREKKDRVFTDKTSATVICRKNASISVRAQDRYYSSSWSEWASVPCS
notes: p19-p40 heterodimer; also called rhIL-23; huIL-23

Legend:
murine IL-23 = target: T1, murine IL-23 (murine, UniProt Q9EQ14 22-196; P43432 23-335); experiment: cytokine capture ELISA: mAbs coated onto plates, cytokines at 100 ng/ml; murine p40 containing cytokine detected with C17.8-biotin
T1 sequence (looked up) 1: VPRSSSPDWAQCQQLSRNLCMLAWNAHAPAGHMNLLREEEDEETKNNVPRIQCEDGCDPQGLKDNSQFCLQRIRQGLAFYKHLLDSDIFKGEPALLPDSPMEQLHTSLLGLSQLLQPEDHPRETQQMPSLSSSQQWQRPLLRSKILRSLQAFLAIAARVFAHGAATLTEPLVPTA
T1 sequence (looked up) 2: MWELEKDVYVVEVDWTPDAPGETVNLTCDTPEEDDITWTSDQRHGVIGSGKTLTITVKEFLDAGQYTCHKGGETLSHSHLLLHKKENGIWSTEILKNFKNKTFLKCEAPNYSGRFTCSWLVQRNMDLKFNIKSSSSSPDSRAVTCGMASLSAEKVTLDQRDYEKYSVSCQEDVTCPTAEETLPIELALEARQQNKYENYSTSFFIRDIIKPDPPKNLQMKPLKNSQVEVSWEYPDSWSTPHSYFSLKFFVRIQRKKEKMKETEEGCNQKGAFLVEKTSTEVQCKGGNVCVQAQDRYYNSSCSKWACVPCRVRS

mIL-12 = target: T2, mIL-12 (Disulfide-linked, glycosylated heterodimer; the letters do not carry this.); experiment: as above
T2 construct: also called murine IL-12; copies: 1 + 1
T2 alpha: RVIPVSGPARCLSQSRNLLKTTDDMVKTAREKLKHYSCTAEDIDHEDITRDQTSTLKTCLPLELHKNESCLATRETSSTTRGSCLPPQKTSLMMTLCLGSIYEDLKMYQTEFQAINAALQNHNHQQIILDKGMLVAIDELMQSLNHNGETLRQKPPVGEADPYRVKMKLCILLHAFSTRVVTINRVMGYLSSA
T2 beta: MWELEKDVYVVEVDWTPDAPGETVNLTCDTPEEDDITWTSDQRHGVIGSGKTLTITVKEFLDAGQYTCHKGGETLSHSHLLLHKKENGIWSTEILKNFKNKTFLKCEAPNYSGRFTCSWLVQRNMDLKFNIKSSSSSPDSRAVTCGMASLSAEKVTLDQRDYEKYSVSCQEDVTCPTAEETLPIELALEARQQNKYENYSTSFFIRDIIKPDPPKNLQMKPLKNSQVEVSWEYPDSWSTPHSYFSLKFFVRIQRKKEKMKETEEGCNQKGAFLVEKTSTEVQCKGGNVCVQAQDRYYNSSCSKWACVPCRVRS

[1] = target: B4; experiment: cell-based or functional assay
[2] = target: T3, recombinant human IL-12 (hrIL-12), produced at Centocor (human, UniProt P29459 23-219; P29460 23-328); experiment: cytokine capture ELISA: mAbs coated onto plates, cytokines at 100 ng/ml, binding detected with mAb12B-biotin
T3 construct: also called IL-12 CNTO
T3 sequence (looked up) 1: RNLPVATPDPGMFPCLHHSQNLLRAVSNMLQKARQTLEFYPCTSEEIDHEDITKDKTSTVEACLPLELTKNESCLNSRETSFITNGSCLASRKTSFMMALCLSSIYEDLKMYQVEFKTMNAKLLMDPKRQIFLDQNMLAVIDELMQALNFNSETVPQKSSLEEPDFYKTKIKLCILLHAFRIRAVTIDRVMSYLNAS
T3 sequence (looked up) 2: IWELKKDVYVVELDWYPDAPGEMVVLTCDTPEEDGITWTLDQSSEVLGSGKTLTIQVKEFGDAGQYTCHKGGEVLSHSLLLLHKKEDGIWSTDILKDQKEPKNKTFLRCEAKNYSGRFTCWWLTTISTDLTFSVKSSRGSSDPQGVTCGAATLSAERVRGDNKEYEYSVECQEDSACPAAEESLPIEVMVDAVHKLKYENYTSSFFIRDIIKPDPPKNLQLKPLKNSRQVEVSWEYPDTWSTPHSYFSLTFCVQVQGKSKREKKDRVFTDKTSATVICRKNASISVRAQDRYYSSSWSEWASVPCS
Protocol: (§1) Purified mouse anti-hIL-23 mAbs were evaluated in cytokine capture ELISA to determine their antigen subunit specificity. Briefly, IL-23 mAbs were coated onto plates and incubated with 100 ng/ml) hrIL-23, hrIL-12, and hrp40, respectively. Following incubation with biotinylated anti-p40 mAb, the binding was detected using HRP—conjugated streptavidin. An anti-p40 mAb and an anti-IL-12 mAb (20C2, Catalog No. 555065, BD Pharmingen, San Diego, Calif.) with known specificity were used as controls.

[3] = target: T4, p40 subunit of hrIL-12 (hrp40 monomer) (human, UniProt P29460 23-328); experiment: as above
T4 construct: also called p40 R&D
T4 sequence (looked up): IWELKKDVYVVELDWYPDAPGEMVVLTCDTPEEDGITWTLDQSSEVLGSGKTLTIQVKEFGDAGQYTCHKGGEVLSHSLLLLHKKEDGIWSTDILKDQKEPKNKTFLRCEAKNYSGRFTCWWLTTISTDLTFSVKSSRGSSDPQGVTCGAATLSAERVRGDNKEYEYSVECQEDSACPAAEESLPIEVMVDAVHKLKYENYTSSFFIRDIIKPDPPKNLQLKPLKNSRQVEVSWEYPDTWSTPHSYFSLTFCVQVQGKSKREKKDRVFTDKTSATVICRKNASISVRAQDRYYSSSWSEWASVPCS
Protocol: as §1

murine p40 = target: T5, murine p40 (murine, UniProt P43432 23-335); experiment: cytokine capture ELISA: mAbs coated onto plates, cytokines at 100 ng/ml; murine p40 containing cytokine detected with C17.8-biotin; target printed as m(p40)2
T5 sequence (looked up): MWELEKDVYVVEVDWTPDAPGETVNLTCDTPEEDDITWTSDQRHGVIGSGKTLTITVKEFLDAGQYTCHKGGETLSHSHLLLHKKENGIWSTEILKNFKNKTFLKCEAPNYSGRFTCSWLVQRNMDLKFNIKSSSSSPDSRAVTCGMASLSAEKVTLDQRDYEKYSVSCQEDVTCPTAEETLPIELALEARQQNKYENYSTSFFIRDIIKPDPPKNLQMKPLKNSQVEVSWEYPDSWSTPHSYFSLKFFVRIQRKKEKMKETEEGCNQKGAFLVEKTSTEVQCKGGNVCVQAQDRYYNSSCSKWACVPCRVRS

[4] = target: B4; experiment: biotinylated hrIL-23 on immobilized IL-23R-Fc
Protocol: (§2) In this experiment, a human IL-23R-Fc fusion protein was immobilized on a plate. This fusion protein consists of the extracellular domain of human IL-23 receptor fused to a human Fc segment. Biotinylated hrIL-23 was added to the plate either alone or after preincubation with individual IL-23p19 mAbs. Soluble IL-23R (IL-23R-Fc) was used as a positive control. IL-23 binding was detected with HRP-conjugated streptavidin. […] There was no inhibition by B21M, a mAb with unrelated specificity. […] IL-23 binding was inhibited by the p40 neutralizing mAb CNTO 1275 (same as mAb 12A), as expected. […] CNTO 1275 again served as a positive control.

[5] = target: B4; experiment: hrIL-23/hIL-23R competition assay, soluble receptor as reference
[6] = target: B4; experiment: blocking ELISA (BRBA): biotinylated IL-23 with titrated soluble IL-23R-Fc, binding to plate-immobilized IL-23R-Fc
Protocol: as §2

[7] = target: B4; experiment: blocking ELISA: 20 ng/ml IL-23-bt. with titrated mAb, binding to plate-immobilized IL-23R-Fc is blocked
[8] = target: T6, IL-23R and IL-12Rβ1 naturally expressed on TALL-104 cells (human, UniProt Q5VWK5 24-629; P42701 24-662); experiment: flow cytometry on TALL-104 cells
T6 construct: whole, on cells

binding result (murine IL-23): no binding (tested: 100 ng/ml)
binding result (mIL-12): no binding (tested: 100 ng/ml)
IC50, inhibition of IL-17 production [1]: 0.218 µg/mL
binding result [2]: no binding (tested: 100 ng/ml)
binding result [3]: no binding (tested: 100 ng/ml)
binding result (murine p40): no binding (tested: 100 ng/ml)
fold weaker potency than soluble IL-23R-Fc [4]: ~3 fold
B1: MOR04190 mAb (antibody, human IgG1, V domains shown)
VH: QVELVQSGAEVKKPGSSVKVSCKASGGTFSSNYISWVRQAPGQGLEWMGGIIPIFGHANYAQKFQGRVTITADESTSTAYMELSSLRSEDTAVYYCARSKKGMYGGWTYPLMMFDLWGQGTLVTVSS
VL: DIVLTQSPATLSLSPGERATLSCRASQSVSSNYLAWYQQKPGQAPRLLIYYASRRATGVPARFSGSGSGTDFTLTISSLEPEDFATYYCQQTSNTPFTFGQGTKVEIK
notes: human IgG1/kappa; also called 4190 (κ); MOR0190

IC50 [5]: 1.8 nM
IC50 (read off the curve) [6]: ~0.05 µg/mL
B2: human IL-23R-Fc fusion protein (Fc fusion, UniProt Q5VWK5 24-355, looked up, not shown: a dimerising Fc or GST)
chain: GITNINCSGHIWVEPATIFKMGMNISIYCQAAIKNCQPRKLHFYKNGIKERFQITRINKTTARLWYKNFLEPHASMYCTAECPKHFQETLICGKDISSGYPPDIPDEVTCVIYEYSGNMTCTWNAGKLTYIDTKYVVHVKSLETEEEQQYLTSSYINISTDSLQGGKKYLVWVQAANALGMEESKQLQIHLDDIVIPSAAVISRAETINATVPKTIIYWDSQTTIEKVSCEMRYKATTNQTWNVKEFDTNFTYVQQSEFYLEPNIKYVFQVRCQETGKRYWQPWSSLFFHKTPETVPQVTSKAFQHDTWNSGLTVASISTGHLTSDNRGDIG
notes: extracellular domain; also called hIL-23R; soluble IL-23R

More lines, now with the values behind:

B3: MOR05049 mAb (antibody, human IgG1, V domains shown)
VH: QVELVESGGGLVQPGGSLRLSCAASGFTFSSFGMSWVRQAPGKGLEWVSGIEHKYLSYTTHYAASVKGRFTISRDNSKNTLYLQMNSLRAEDTAVYYCARYWGTPYLMQFDNWGQGTLVTVSS
VL: DIALTQPASVSGSPGQSITISCTGTSSDVGGYNSVSWYQQHPGKAPKLMIYSVSSRPSGVSNRFSGSKSGNTASLTISGLQAEDEADYYCSSYDTNKPLVVFGGGTKLTVL
notes: human IgG1/lambda
IC50 (read off the curve) [7]: ~0.1 µg/mL
IC50, inhibition of IL-17 production [1]: 0.0162 µg/mL

Binder: B4
binding result [8]: binds
